Measurements published in patent US20180022819A1 (published 2018).

Legend:
[1] = molecular target: T1, prostate-specific membrane antigen (PSMA) (human, UniProt Q04609 1-750); test: flow cytometry binding, 22Rv1 cells; 0 enza (untreated)
[2] = molecular target: T1, prostate-specific membrane antigen …; test: flow cytometry binding, 22Rv1 cells; 3 wk enza
[3] = molecular target: T1, prostate-specific membrane antigen …; test: flow cytometry binding, 22Rv1 cells; 1 wk enza
[4] = molecular target: T1, prostate-specific membrane antigen …; test: flow cytometry binding, 22Rv1 cells; 2 wk enza

T1 sequence (Q04609 whole entry): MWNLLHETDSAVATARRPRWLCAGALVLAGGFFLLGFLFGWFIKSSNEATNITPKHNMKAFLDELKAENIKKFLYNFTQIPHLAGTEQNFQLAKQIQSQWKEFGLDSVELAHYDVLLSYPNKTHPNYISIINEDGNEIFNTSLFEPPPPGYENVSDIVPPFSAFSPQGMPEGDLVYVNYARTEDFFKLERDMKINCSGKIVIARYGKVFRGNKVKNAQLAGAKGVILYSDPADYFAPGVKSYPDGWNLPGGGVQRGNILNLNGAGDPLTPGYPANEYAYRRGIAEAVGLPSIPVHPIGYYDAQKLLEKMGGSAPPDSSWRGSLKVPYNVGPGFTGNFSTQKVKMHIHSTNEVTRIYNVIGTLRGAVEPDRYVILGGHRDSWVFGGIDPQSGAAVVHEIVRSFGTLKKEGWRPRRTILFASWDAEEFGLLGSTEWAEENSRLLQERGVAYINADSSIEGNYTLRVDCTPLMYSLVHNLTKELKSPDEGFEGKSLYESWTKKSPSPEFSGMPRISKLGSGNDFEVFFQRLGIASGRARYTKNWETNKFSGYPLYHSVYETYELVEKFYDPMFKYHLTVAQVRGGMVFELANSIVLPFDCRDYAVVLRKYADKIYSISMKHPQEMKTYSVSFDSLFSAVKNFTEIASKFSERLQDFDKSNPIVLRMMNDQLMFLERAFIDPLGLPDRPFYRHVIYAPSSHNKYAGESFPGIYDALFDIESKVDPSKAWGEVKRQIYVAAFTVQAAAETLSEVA

EC50 [1]: 2.2 nM
EC50 [2]: 2.7 nM
EC50 [3]: 2.3 nM
EC50 [4]: 2.5 nM
B1: FITC-labeled anti-PSMA monoclonal antibody 107-1A4 (Acris) (antibody, V domains shown)
VH: EIQLQQSGPELVKPGASVKMSCKASGYTFTDYYMHWVKQNNGESLEWIGYFNPYNDYTRYNQNFNGKATLTVDKSSSTAYMQLNSLTSEDSAFYYCARSDGYYDAMDYWGQGTSVTVSS
VL: DVQITQSPSYLAASPGETITINCRASKSISKYLAWYQEKPGKANKLLIHSGSTLQSGIPSRFSGSGSGTDFTLTISSLEPEDFAMYYCQQHIEYPWTFGGGTKLEIKR
